What was measured:
[1] = molecular target: T1, soluble RAGE (sRAGE), the soluble, extracellular portion of the human Receptor for Advanced Glycated … (human, UniProt Q15109 23-339); assay: ELISA saturation curve with Scatchard analysis (FIG. 8), 50 ng/well S-100b coated, sRAGE about 0.3-10 nM; high affinity component
[2] = molecular target: T1, soluble RAGE (sRAGE), the soluble, …; assay: ELISA saturation curve with Scatchard analysis (FIG. 9), 100 ng/well S-100b coated, sRAGE about 0.3-10 nM; high affinity component
[3] = molecular target: T1, soluble RAGE (sRAGE), the soluble, …; assay: ELISA saturation curves with Scatchard analysis (FIGS. 10 and 11), 500 and 100 ng/well S-100b coated, sRAGE about 23-470 nM or 5-76 nM; low affinity site, told for both experiments

T1 sequence (Q15109 23-339 limits assumed): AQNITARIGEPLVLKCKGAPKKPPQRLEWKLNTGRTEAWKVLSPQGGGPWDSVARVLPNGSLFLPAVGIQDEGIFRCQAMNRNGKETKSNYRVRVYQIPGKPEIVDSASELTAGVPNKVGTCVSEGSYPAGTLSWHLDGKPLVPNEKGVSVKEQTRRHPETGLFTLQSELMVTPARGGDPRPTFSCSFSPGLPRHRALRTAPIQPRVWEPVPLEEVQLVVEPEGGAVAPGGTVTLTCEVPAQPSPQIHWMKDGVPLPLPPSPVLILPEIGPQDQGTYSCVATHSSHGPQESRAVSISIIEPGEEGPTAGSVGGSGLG

Kd [1]: ~6 nM
Kd [2]: ~2 nM
Kd [3]: ~60 nM
B1: S-100b (ligand)
chain: MSELEKAMVALIDVFHQYSGREGDKHKLKKSELKELINNELSHFLEEIKEQEVVDKVMETLDNDGDGECDFQEFMAFVAMVTTACHEFFEHE

From patent US6908741 (TRANSTECH PHARMA, dated 2005)
